# Reference: patent US20160367961A1, “METHOD AND COMPOSITION FOR PEPTIDE C[…] PROTEASE TREATMENT” (Roche Sequencing Solutions, Inc., priority 2015, published 2016)
# Target: streptavidin, P22629
# Assay: SPR, BIAcore X100, streptavidin on CM5 chip, peptide in solution
# Sequence of streptavidin, P22629 (P22629 37-163 limits assumed): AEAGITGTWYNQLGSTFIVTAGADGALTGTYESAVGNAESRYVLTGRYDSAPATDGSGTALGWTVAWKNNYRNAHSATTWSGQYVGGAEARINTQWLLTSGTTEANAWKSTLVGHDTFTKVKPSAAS
row,Kd [µM],Binder
1,10.8,QNDHPQNGGQ (modifications not checked)
2,9.4,LYDHPQNGGQ (modifications not checked)
3,100,H-LYDHPQNGGQ-OH
4,61.3,NQPWQ (modifications not checked) [head-to-tail cyclic NQpWQ peptide]
5,320,H-QNDHPQNGGQ-OH
